This is an account of results in patent US7759464.

Experiment [1] has as its target monoclonal anti-idiotypic antibody MMA383. Kind of experiment: sandwich ELISA on wells coated with anti-idiotypic antibody MMA383; evaluated at EC50, normalized on IGN311 wt. Background: In an ELISA, binding on a coated surface is turned into a signal by an enzyme label.
Experiment [2] has the same target. Kind of experiment: sandwich ELISA on wells coated with anti-idiotypic antibody MMA383, detected with anti-human IgG+A+M peroxidase.

B1: IGN311 wt. (antibody, V domains shown)
VH: EVQLLESGGGLVQPGGSLRLSCAASGFTFSDYYMYWVRQAPEKRLEWVAYISNGGGSSHYVDSVKGRFTISRDNSKNTLYLQMNSLRAEDTALYHCARGMDYGAWFAYWGQGTLVTVSS
VL: DIVMTQSPLSLPVTPGEPASISCRSSQSIVHSNGNTYLEWYLQKPGQSPQLLISKVSNRFSGVPDRFSGSGSGTDFTLKISRVEAEDVGVYYCFQGSHVPFTFGQGTKLEIK
For the molecule B1, the % (binding activity normalized on IGN311 wt.) in experiment [1] was 100%. In addition, in experiment [2], the Bottom (four parameter sigmoid fit) was determined as 96.1, the EC50 (usually the concentration at which the effect is half-maximal) stood at 0.0638 µg/mL, the Log EC50 was 1.8 log(ng/ml) and the Top (four parameter sigmoid fit) was 2060.

B2: IGN312 Glyco I (antibody, V domains shown)
VH: B1 VH
VL: B1 VL
modifications: bi-sected hybrid type N-glycosylation pattern in the Fc region (constant part of the heavy chain, not in this VH piece)
In the case of B2, in experiment [1], the % (binding activity normalized on IGN311 wt.) was determined as 108%. Also, in experiment [2], the Bottom (four parameter sigmoid fit) came out at 77, the EC50 came out at 0.0688 µg/mL, the Log EC50 is 1.84 log(ng/ml) and the Top (four parameter sigmoid fit) was determined as 2100.
